The record followed here is PMC4751342.

Assay [1] concerns the target human Izumo1, immobilized AVEXIS bait, Q8IYV9. As to the kind of experiment: AVEXIS. The following applies: chain shown with the change;; parent: est. 0.16; read off a plot.
The target in assay [2] is T1, mouse Izumo1, immobilized AVEXIS bait, Q9D9J7.
T1 chain: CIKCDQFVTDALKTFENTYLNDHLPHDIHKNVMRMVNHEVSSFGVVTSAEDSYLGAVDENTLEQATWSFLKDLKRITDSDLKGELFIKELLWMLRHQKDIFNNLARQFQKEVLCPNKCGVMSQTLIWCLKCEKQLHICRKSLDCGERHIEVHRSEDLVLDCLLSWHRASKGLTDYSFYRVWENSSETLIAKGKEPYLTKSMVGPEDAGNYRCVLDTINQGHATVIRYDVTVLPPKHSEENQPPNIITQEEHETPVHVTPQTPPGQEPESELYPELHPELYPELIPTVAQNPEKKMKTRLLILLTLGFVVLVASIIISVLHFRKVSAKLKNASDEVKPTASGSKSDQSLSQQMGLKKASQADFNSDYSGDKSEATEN
As to the kind of experiment: AVEXIS. The following applies: chain shown with the change;; parent: est. 0.51; read off a plot.

human Izumo1, immobilized AVEXIS bait, Q8IYV9, sequence (Q8IYV9 22-350): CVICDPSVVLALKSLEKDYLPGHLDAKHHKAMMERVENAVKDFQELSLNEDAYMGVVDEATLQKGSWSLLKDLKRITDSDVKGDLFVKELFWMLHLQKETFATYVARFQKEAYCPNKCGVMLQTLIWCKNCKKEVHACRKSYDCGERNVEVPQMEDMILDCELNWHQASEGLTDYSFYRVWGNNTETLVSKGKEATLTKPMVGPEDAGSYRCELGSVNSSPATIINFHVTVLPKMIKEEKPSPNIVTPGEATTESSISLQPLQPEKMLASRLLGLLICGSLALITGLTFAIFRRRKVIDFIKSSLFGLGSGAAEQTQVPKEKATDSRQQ

B1: mouse Juno, wild type, AVEXIS prey, Q9EQF4 N185S (protein)
chain: GDKLLSVCMNSKRHKQEPGPEDELYQECRPWEDNACCTRSTSWEAHLEEPLLFNFSMMHCGLLTPACRKHFIQAICFHECSPNLGPWIQPVVPNGQEEQRVWGVPLCQEDCEDWWRACHSSLTCKSNWLHGWDWSEEKKHCPAHEPCLPFSYHFPTPDDLCEKIWSNTFKASPERRNSGRCLQKWFEPTLSNPNVEVALHFAG
As to B1, the values for the response in assay [1] and in assay [2] were 0.17 A 485 nm and 0.5 A 485 nm, respectively.
